Laboratory results as given in IntAct's records for PubMed 25416956.

B1: Keratin, type II cytoskeletal 6A (Homo sapiens), P02538 (parent)
chain: MASTSTTIRSHSSSRRGFSANSARLPGVSRSGFSSVSVSRSRGSGGLGGACGGAGFGSRSLYGLGGSKRISIGGGSCAISGGYGSRAGGSYGFGGAGSGFGFGGGAGIGFGLGGGAGLAGGFGGPGFPVCPPGGIQEVTVNQSLLTPLNLQIDPTIQRVRAEEREQIKTLNNKFASFIDKVRFLEQQNKVLETKWTLLQEQGTKTVRQNLEPLFEQYINNLRRQLDSIVGERGRLDSELRGMQDLVEDFKNKYEDEINKRTAAENEFVTLKKDVDAAYMNKVELQAKADTLTDEINFLRALYDAELSQMQTHISDTSVVLSMDNNRNLDLDSIIAEVKAQYEEIAQRSRAEAESWYQTKYEELQVTAGRHGDDLRNTKQEIAEINRMIQRLRSEIDHVKKQCANLQAAIADAEQRGEMALKDAKNKLEGLEDALQKAKQDLARLLKEYQELMNVKLALDVEIATYRKLLEGEECRLNGEGVGQVNISVVQSTVSSGYGGASGVGSGLGLGGGSSYSYGSGLGVGGGFSSSSGRAIGGGLSSVGGGSSTIKYTTTSSSSRKSYKH
partner: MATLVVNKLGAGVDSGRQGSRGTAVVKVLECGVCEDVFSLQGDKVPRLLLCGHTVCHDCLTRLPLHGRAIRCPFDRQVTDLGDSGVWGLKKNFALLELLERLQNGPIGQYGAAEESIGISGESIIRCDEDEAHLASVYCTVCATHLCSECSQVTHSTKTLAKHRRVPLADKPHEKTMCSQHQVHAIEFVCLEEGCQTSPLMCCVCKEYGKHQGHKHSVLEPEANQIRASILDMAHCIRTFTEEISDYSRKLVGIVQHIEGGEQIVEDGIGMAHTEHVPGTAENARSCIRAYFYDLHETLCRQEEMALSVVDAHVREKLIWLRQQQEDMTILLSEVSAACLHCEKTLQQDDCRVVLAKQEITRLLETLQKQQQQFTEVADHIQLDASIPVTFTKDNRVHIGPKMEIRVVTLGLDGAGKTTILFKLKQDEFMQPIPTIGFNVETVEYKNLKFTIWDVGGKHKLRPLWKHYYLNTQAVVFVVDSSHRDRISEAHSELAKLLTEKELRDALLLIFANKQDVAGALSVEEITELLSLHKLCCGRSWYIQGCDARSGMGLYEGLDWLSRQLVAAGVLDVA
B2: Serotonin N-acetyltransferase (Homo sapiens), Q16613 (parent)
chain: MSTQSTHPLKPEAPRLPPGIPESPSCQRRHTLPASEFRCLTPEDAVSAFEIEREAFISVLGVCPLYLDEIRHFLTLCPELSLGWFEEGCLVAFIIGSLWDKERLMQESLTLHRSGGHIAHLHVLAVHRAFRQQGRGPILLWRYLHHLGSQPAVRRAALMCEDALVPFYERFSFHAVGPCAITVGSLTFMELHCSLRGHPFLRRNSGC
B3: Zinc finger protein 41 (Homo sapiens), P51814 (parent)
chain: MAANGDSPPWSPALAAEGRGSSCEVRRERTPEARIHSVKRYPDLSPGPKGRSSADHAALNSIVSLQASVSFEDVTVDFSKEEWQHLDPAQRRLYWDVTLENYSHLLSVGYQIPKSEAAFKLEQGEGPWMLEGEAPHQSCSGEAIGKMQQQGIPGGIFFHCERFDQPIGEDSLCSILEELWQDNDQLEQRQENQNNLLSHVKVLIKERGYEHKNIEKIIHVTTKLVPSIKRLHNCDTILKHTLNSHNHNRNSATKNLGKIFGNGNNFPHSPSSTKNENAKTGANSCEHDHYEKHLSHKQAPTHHQKIHPEEKLYVCTECVMGFTQKSHLFEHQRIHAGEKSRECDKSNKVFPQKPQVDVHPSVYTGEKPYLCTQCGKVFTLKSNLITHQKIHTGQKPYKCSECGKAFFQRSDLFRHLRIHTGEKPYECSECGKGFSQNSDLSIHQKTHTGEKHYECNECGKAFTRKSALRMHQRIHTGEKPYVCADCGKAFIQKSHFNTHQRIHTGEKPYECSDCGKSFTKKSQLHVHQRIHTGEKPYICTECGKVFTHRTNLTTHQKTHTGEKPYMCAECGKAFTDQSNLIKHQKTHTGEKPYKCNGCGKAFIWKSRLKIHQKSHIGERHYECKDCGKAFIQKSTLSVHQRIHTGEKPYVCPECGKAFIQKSHFIAHHRIHTGEKPYECSDCGKCFTKKSQLRVHQKIHTGEKPNICAECGKAFTDRSNLITHQKIHTREKPYECGDCGKTFTWKSRLNIHQKSHTGERHYECSKCGKAFIQKATLSMHQIIHTGKKPYACTECQKAFTDRSNLIKHQKMHSGEKRYKASD
B4: TERF1-interacting nuclear factor 2 (Homo sapiens), Q9BSI4 (parent)
chain: MATPLVAGPAALRFAAAASWQVVRGRCVEHFPRVLEFLRSLRAVAPGLVRYRHHERLCMGLKAKVVVELILQGRPWAQVLKALNHHFPESGPIVRDPKATKQDLRKILEAQETFYQQVKQLSEAPVDLASKLQELEQEYGEPFLAAMEKLLFEYLCQLEKALPTPQAQQLQDVLSWMQPGVSITSSLAWRQYGVDMGWLLPECSVTDSVNLAEPMEQNPPQQQRLALHNPLPKAKPGTHLPQGPSSRTHPEPLAGRHFNLAPLGRRRVQSQWASTRGGHKERPTVMLFPFRNLGSPTQVISKPESKEEHAIYTADLAMGTRAASTGKSKSPCQTLGGRALKENPVDLPATEQKENCLDCYMDPLRLSLLPPRARKPVCPPSLCSSVITIGDLVLDSDEEENGQGEGKESLENYQKTKFDTLIPTLCEYLPPSGHGAIPVSSCDCRDSSRPL
B5: Tumor necrosis factor receptor superfamily member 13B (Homo sapiens), O14836 (parent)
chain: MSGLGRSRRGGRSRVDQEERFPQGLWTGVAMRSCPEEQYWDPLLGTCMSCKTICNHQSQRTCAAFCRSLSCRKEQGKFYDHLLRDCISCASICGQHPKQCAYFCENKLRSPVNLPPELRRQRSGEVENNSDNSGRYQGLEHRGSEASPALPGLKLSADQVALVYSTLGLCLCAVLCCFLVAVACFLKKRGDPCSCQPRSRPRQSPAKSSQDHAMEAGSPVSTSPEPVETCSFCFPECRAPTQESAVTPGTPDPTCAGRWGCHTRTTVLQPCPHIPDSGLGIVCVPAQEGGPGA
B6: Chorion-specific transcription factor GCMb (Homo sapiens), O75603 (parent)
chain: MPAAAVQEAVGVCSYGMQLSWDINDPQMPQELALFDQFREWPDGYVRFIYSSDEKKAQRHLSGWAMRNTNNHNGHILKKSCLGVVVCTQACTLPDGSRLQLRPAICDKARLKQQKKACPNCHSALELIPCRGHSGYPVTNFWRLDGNAIFFQAKGVHDHPRPESKSETEARRSAIKRQMASFYQPQKKRIRESEAEENQDSSGHFSNIPPLENPEDFDIVTETSFPIPGQPCPSFPKSDVYKATCDLATFQGDKMPPFQKYSSPRIYLPRPPCSYELANPGYTNSSPYPTLYKDSTSIPNDTDWVHLNTLQCNVNSYSSYERSFDFTNKQHGWKPALGKPSLVERTNHGQFQAMATRPYYNPELPCRYLTTPPPGAPALQTVITTTTKVSYQAYQPPAMKYSDSVREVKSLSSCNYAPEDTGMSVYPEPWGPPVTVTRAASPSGPPPMKIAGDCRAIRPTVAIPHEPVSSRTDEAETWDVCLSGLGSAVSYSDRVGPFFTYNNEDF
B7: Lipopolysaccharide-induced tumor necrosis factor-alpha factor (Homo sapiens), Q99732 (parent)
chain: MSVPGPYQAATGPSSAPSAPPSYEETVAVNSYYPTPPAPMPGPTTGLVTGPDGKGMNPPSYYTQPAPIPNNNPITVQTVYVQHPITFLDRPIQMCCPSCNKMIVSQLSYNAGALTWLSCGSLCLLGCIAGCCFIPFCVDALQDVDHYCPNCRALLGTYKRL

Variants of: B1
Conditions: with tri23_human TRIM23, P36406

Row | Variant | effect of a mutation on the interaction
1 | N171K | disrupting interaction

Variants of: B1
Conditions: with tri23_human TRIM23, P36406
Remark: another data set of the same source

Row | Variant | effect of a mutation on the interaction
2 | A463P | disrupting interaction

Variants of: B1
Conditions: with tri23_human TRIM23, P36406
Remark: another data set of the same source

Row | Variant | effect of a mutation on the interaction
3 | I462S | disrupting interaction

Variants of: B2
Conditions: with bhe40_human BHLHE40, O14503
bhe40_human BHLHE40, O14503, sequence (O14503 whole entry): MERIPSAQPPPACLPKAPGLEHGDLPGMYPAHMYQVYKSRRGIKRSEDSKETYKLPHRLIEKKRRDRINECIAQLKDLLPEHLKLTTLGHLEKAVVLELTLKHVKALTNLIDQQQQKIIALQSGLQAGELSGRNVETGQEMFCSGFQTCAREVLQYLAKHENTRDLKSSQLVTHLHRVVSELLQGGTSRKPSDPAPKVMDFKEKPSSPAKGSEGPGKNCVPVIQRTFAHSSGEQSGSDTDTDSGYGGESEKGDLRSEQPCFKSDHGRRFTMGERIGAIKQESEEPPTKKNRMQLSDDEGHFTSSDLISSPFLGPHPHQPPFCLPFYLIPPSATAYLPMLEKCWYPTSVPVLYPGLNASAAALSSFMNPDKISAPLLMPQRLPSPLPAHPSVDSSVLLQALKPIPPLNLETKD

Row | Variant | effect of a mutation on the interaction
4 | A129T | disrupting interaction

Variants of: B3
Conditions: with fam9b_human FAM9B

Row | Variant | effect of a mutation on the interaction
5 | Q111L | disrupting interaction

Variants of: B4
Conditions: with acd_human ACD

Row | Variant | effect of a mutation on the interaction
6 | P236S | disrupting interaction

Variants of: B5
Conditions: with sgta_human SGTA

Row | Variant | effect of a mutation on the interaction
7 | E125R | disrupting interaction

Variants of: B6
Conditions: with rbpms_human RBPMS

Row | Variant | effect of a mutation on the interaction
8 | G63S | disrupting interaction

Variants of: B7
Conditions: with hgs_human HGS

Row | Variant | effect of a mutation on the interaction
9 | G112S | disrupting interaction

Variants of: B7
Conditions: with stam2_human STAM2, O75886

Row | Variant | effect of a mutation on the interaction
10 | G112S | disrupting interaction

Variants of: B7
Conditions: with reep6_human REEP6, Q96HR9
reep6_human REEP6, Q96HR9, sequence (Q96HR9 whole entry): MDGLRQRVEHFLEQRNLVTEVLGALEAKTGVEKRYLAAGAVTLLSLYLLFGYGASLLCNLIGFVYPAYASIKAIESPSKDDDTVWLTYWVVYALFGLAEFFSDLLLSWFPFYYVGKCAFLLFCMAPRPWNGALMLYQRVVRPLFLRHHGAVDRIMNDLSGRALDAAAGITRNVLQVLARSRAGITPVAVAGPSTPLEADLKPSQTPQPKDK

Row | Variant | effect of a mutation on the interaction
11 | G112S | disrupting interaction

Variants of: B7
Conditions: with UBQLN1, Q9UMX0-2
UBQLN1, Q9UMX0-2, sequence (Q9UMX0 other isoform, or with tags, fused parts or gaps): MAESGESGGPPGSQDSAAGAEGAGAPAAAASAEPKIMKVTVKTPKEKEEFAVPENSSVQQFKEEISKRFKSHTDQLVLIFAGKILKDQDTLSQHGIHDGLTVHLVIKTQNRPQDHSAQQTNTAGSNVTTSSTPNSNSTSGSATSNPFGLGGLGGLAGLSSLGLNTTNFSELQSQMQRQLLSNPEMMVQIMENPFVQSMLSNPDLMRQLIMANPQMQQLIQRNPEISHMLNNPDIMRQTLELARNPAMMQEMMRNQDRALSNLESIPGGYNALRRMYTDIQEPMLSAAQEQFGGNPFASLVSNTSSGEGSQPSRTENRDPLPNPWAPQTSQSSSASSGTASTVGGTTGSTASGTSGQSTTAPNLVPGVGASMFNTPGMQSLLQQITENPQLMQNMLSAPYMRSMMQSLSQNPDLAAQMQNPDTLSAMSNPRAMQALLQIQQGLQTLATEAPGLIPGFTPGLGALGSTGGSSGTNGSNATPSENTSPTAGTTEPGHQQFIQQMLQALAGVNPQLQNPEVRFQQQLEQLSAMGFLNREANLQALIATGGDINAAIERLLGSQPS

Row | Variant | effect of a mutation on the interaction
12 | G112S | disrupting interaction

Variants of: B7
Conditions: with ubql1_human UBQLN1, Q9UMX0
ubql1_human UBQLN1, Q9UMX0, sequence (Q9UMX0 whole entry): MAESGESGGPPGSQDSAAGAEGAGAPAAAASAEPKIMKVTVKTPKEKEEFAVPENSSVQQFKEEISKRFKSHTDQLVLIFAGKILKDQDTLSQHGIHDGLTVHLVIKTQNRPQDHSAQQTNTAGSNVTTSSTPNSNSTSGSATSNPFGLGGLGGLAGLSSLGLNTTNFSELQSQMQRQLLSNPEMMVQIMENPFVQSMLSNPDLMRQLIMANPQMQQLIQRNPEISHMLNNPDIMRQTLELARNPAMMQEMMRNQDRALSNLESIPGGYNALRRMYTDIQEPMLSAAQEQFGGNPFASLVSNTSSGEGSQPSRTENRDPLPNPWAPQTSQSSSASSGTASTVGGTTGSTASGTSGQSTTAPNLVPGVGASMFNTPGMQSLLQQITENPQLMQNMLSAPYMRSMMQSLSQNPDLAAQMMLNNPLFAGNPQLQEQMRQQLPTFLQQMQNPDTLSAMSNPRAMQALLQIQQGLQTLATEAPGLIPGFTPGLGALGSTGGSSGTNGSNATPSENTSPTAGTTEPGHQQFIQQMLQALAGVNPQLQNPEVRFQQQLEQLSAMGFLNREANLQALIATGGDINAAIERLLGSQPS

Row | Variant | effect of a mutation on the interaction
13 | G112S | disrupting interaction

Variants of: B7
Conditions: with hgs_human HGS
Remark: another data set of the same source

Row | Variant | effect of a mutation on the interaction
14 | A111G | disrupting interaction

Variants of: B7
Conditions: with stam2_human STAM2, O75886
Remark: another data set of the same source

Row | Variant | effect of a mutation on the interaction
15 | A111G | disrupting interaction

Variants of: B7
Conditions: with reep6_human REEP6, Q96HR9
Remark: another data set of the same source

Row | Variant | effect of a mutation on the interaction
16 | A111G | disrupting interaction

Variants of: B7
Conditions: with UBQLN1, Q9UMX0-2
Remark: another data set of the same source

Row | Variant | effect of a mutation on the interaction
17 | A111G | disrupting interaction

Variants of: B7
Conditions: with ubql1_human UBQLN1, Q9UMX0
Remark: another data set of the same source

Row | Variant | effect of a mutation on the interaction
18 | A111G | disrupting interaction
